Target: the molecule itself
Assay: SAXS

B1: HsRXRαΔNTD (130-462) (domain or fragment)
chain: FTKHICAICGDRSSGKHYGVYSCEGCKGFFKRTVRKDLTYTCRDNKDCLIDKRQRNRCQYCRYQKCLAMGMKREAVQEERQRGKDRNENEVESTSSANEDMPVERILEAELAVEPKTETYVEANMGLNPSSPNDPVTNICQAADKQLFTLVEWAKRIPHFSELPLDDQVILLRAGWNELLIASFSHRSIAVKDGILLATGLHVHRNSAHSAGVGAIFDRVLTELVSKMRDMQMDKTELGCLRAIVLFNPDSKGLSNPAEVEALREKVYASLEAYCKHKYPEQPGRFAKLLLRLPALRSIGLKCLEHLFFFKLIGDTPIDTFLMEMLEAPHQMT
- stoichiometry N: 2
